Experimental data taken from paper PMC8165282.

Molecular target: duck STING-LgBiT-Myc (pBiT-STING-LgBiT-Myc)
Assay: NanoBiT luciferase complementation in DEFs
Settings: pBiT-STING-LgBiT-Myc 400 ng/well, pBiT-2KNS4B-SmBiT-Flag or mutant 400 ng/well, 20 h posttransfection, read off a plot

Substance | response (parent: est. 3.3e7) | response (parent: est. 1.7e6)
duck TMUV 2KNS4B-SmBiT-Flag (pBiT-2KNS4B-SmBiT-Flag) D12A | 2.4e+07 RLU | 
duck TMUV 2KNS4B-SmBiT-Flag (pBiT-2KNS4B-SmBiT-Flag) D34A | 1.7e+07 RLU | 
duck TMUV 2KNS4B-SmBiT-Flag (pBiT-2KNS4B-SmBiT-Flag) D34A; L35A; R36A |  | 830000 RLU
duck TMUV 2KNS4B-SmBiT-Flag (pBiT-2KNS4B-SmBiT-Flag) E2A | 2.4e+07 RLU | 
duck TMUV 2KNS4B-SmBiT-Flag (pBiT-2KNS4B-SmBiT-Flag) E7A | 2.5e+07 RLU | 
duck TMUV 2KNS4B-SmBiT-Flag (pBiT-2KNS4B-SmBiT-Flag) E7A; Q8A; T9A |  | 830000 RLU
duck TMUV 2KNS4B-SmBiT-Flag (pBiT-2KNS4B-SmBiT-Flag) G4A | 2.3e+07 RLU | 
duck TMUV 2KNS4B-SmBiT-Flag (pBiT-2KNS4B-SmBiT-Flag) G4A; W5A; L6A |  | 1.3e+06 RLU
duck TMUV 2KNS4B-SmBiT-Flag (pBiT-2KNS4B-SmBiT-Flag) K10A | 2e+07 RLU | 
duck TMUV 2KNS4B-SmBiT-Flag (pBiT-2KNS4B-SmBiT-Flag) K10A; K11A; D12A |  | 1.4e+06 RLU
duck TMUV 2KNS4B-SmBiT-Flag (pBiT-2KNS4B-SmBiT-Flag) K11A | 2.6e+07 RLU | 
duck TMUV 2KNS4B-SmBiT-Flag (pBiT-2KNS4B-SmBiT-Flag) L6A | 2.7e+07 RLU | 
duck TMUV 2KNS4B-SmBiT-Flag (pBiT-2KNS4B-SmBiT-Flag) L35A | 2.6e+07 RLU | 
duck TMUV 2KNS4B-SmBiT-Flag (pBiT-2KNS4B-SmBiT-Flag) M3A | 2.2e+07 RLU | 
duck TMUV 2KNS4B-SmBiT-Flag (pBiT-2KNS4B-SmBiT-Flag) N1A | 3.6e+07 RLU | 
duck TMUV 2KNS4B-SmBiT-Flag (pBiT-2KNS4B-SmBiT-Flag) N1A; E2A; M3A |  | 930000 RLU
duck TMUV 2KNS4B-SmBiT-Flag (pBiT-2KNS4B-SmBiT-Flag) Q8A | 2.7e+07 RLU | 
duck TMUV 2KNS4B-SmBiT-Flag (pBiT-2KNS4B-SmBiT-Flag) R36A | 1.9e+07 RLU | 
duck TMUV 2KNS4B-SmBiT-Flag (pBiT-2KNS4B-SmBiT-Flag) T9A | 2.9e+07 RLU | 
duck TMUV 2KNS4B-SmBiT-Flag (pBiT-2KNS4B-SmBiT-Flag) W5A | 1.5e+07 RLU | 
